Experimental data: patent publication US7947279B2, “Peptide having hydrolase activity” (The Trustees of Columbia University in the City of New York, priority 2005, dated 2011)
Entries after “also recorded” stand apart in the source; their conditions may differ.

How the values were obtained:
[1] = biological target: T1, Uch-L3 (Homo sapiens, UniProt P15374); settings: cited from earlier work
T1 sequence (P15374 1-230): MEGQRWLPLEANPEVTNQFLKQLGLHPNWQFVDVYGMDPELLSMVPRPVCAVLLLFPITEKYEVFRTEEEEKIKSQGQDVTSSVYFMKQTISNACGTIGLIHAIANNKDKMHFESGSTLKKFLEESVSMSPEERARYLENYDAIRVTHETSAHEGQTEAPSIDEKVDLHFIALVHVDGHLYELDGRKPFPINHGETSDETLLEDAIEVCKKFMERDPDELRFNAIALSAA

[2] = biological target: T2, Uch-L1 (Mus musculus, UniProt Q9R0P9); experiment: Hydrolase (ubiquitin-AMC) assay on hippocampal slices; assay type: cell-based
T2 construct: hippocampal tissue was treated with tissue protein extraction reagent; from tissue; host or cells: mouse hippocampal slices (C57/BL6 or APP/PS1 and WT littermates)
T2 sequence (Q9R0P9 1-220): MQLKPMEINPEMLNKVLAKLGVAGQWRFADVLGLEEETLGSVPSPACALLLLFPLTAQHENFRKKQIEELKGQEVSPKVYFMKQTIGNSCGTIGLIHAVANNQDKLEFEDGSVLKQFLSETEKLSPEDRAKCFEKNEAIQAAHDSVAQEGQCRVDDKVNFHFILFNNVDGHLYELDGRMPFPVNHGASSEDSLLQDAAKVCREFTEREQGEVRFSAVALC
Procedure: (§1) Slice preparation. Mice were decapitated and their hippocampi removed. […] Slices were permitted to recover from cutting for at least 90 min. before recordings. For experiments with lactacystin, slices were perfused with the drug or vehicle for 2 to 4 hrs in a small volume (10 ml) chamber.
(§2) Briefly, hippocampal tissue was treated with tissue protein extraction reagent (T-PER; Pierce) containing freshly added EDTA-free protease inhibitors. Homogenate was centrifuged at 10,000 rpm for 5 min. Protein concentration was measured in the supernatant using the BCA protein assay reagent. In some experiments hydrolysis was initiated by adding 10 μl of 20 nM Uch-L1 or Uch-L3 (Boston Biochem). The hydrolase assay was performed using fluorogenic ubiquitin-7-amino-4-methylcoumarin (ubiquitin-AMC) (Boston Biochem) as a substrate. The substrate was diluted in assay buffer (50 mM Tris-HCL, 0.5 mM EDTA, 5 mM dithiothreitol and 0.1 mg/ml ovalbumin, pH 7.6). Each reaction mixture containing 400 nM substrate and 100 μg enzyme sample was incubated for 5 min at room temperature. The reaction was monitored using a fluorescence spectrophotometer (CytoFluor Series 4000, ABI Inc) at 25° C. The free AMC fluorophore was excited at 380 nm and measured at 460 nm. […] In some experiments, hydrolysis was also measured on the soluble and insoluble fractions (FIG. 28D). In a group of experiments hydrolysis was measured by mixing ubiquitin-AMC with 20 nM TAT fusion proteins (FIG. 27C). In other experiments the substrate was Nedd8-AMC (Boston Biochem).

[3] = test system: hippocampal slices; assay type: cell-based, mouse
Procedure: Western Blotting: Protein levels were assessed using standard procedures. Protein extraction was performed using buffer with and without detergent. For the extraction of protein using detergent, hippocampal tissues and cultured hippocampal neurons (5 DIV) were homogenized in RIPA buffer (50 mM Tris-HCl pH 7.4, 1% Triton X-100, 1% sodium deoxycholate, 0.1% SDS, 150 mM sodium chloride, 10 mM sodium fluoride, 30 mM sodium pyrophosphate, 50 mM sodium orthovanadate) containing 1× complete protease inhibitor (Roche) and 1 mM phenylmethylsulfonyl fluoride (PMSF). For extraction of proteins without detergent, hippocampal extracts were homogenized with disposable dounce homogenizers in buffer A, containing 10 mM HEPES pH 7.3, 300 mM sucrose, protease 1× complete protease inhibitor (Roche) and PMSF. After centrifugation at 10,000×g supernatant proteins were resolved on a 8% or 4-20% gradient Tris-Glycine gel, transferred onto PVDF or nitrocellulose membrane and blocked in 5% skim milk in PBS-Tween 0.1% (PBS-T). […] To control loading and transfer, protein immunoreactivities were normalized against total extracellular signal-regulated protein kinases (ERK1/2) levels with a rabbit analyzed using a rabbit polyclonal anti-ERK1/2 antibody (Cell Signaling Technology, Inc). NIH IMAGE was used to analyze the scanned blots and quantify the intensity of the protein signals.

[4] = test system: PKA RIIα; experiment: PKA RIIα levels in hippocampal slices (Western blot); assay type: cell-based, mouse; settings: for Aβ-induced increase in PKA RIIα levels (words): fusion protein 20 nM 1 hr, Aβ 200 nM 20 min
Procedure: Western Blotting: Protein levels were assessed using standard procedures. Protein extraction was performed using buffer with and without detergent. For the extraction of protein using detergent, hippocampal tissues and cultured hippocampal neurons (5 DIV) were homogenized in RIPA buffer (50 mM Tris-HCl pH 7.4, 1% Triton X-100, 1% sodium deoxycholate, 0.1% SDS, 150 mM sodium chloride, 10 mM sodium fluoride, 30 mM sodium pyrophosphate, 50 mM sodium orthovanadate) containing 1× complete protease inhibitor (Roche) and 1 mM phenylmethylsulfonyl fluoride (PMSF). For extraction of proteins without detergent, hippocampal extracts were homogenized with disposable dounce homogenizers in buffer A, containing 10 mM HEPES pH 7.3, 300 mM sucrose, protease 1× complete protease inhibitor (Roche) and PMSF. After centrifugation at 10,000×g supernatant proteins were resolved on a 8% or 4-20% gradient Tris-Glycine gel, transferred onto PVDF or nitrocellulose membrane and blocked in 5% skim milk in PBS-Tween 0.1% (PBS-T). Membranes were probed with primary antibodies, and after washing with PBS-T incubated with an appropriate HRP-conjugated secondary antibody. The following antibodies were used: mouse monoclonal anti-ubiquitin (Chemicon), rabbit polyclonal anti-pCREB (Upstate Biotech.), rabbit polyclonal anti-PKA-RIIα (Santa Cruz Biotech. Inc), mouse monoclonal anti-Uch-L1 (Novocastra), monoclonal mouse anti-HA (Santa Cruz Biotech. Inc), and anti-PKA IIα. Detection was performed using HRP-conjugated secondary antibodies (Pierce, Rockford, Ill.). To control loading and transfer, protein immunoreactivities were normalized against total extracellular signal-regulated protein kinases (ERK1/2) levels with a rabbit analyzed using a rabbit polyclonal anti-ERK1/2 antibody (Cell Signaling Technology, Inc). NIH IMAGE was used to analyze the scanned blots and quantify the intensity of the protein signals.

[5] = test system: cAMP; experiment: Intracellular cAMP enzyme immunoassay; assay type: cell-based, rat; settings: fusion protein 100 nM 24 hrs, Aβ
Procedure: Intracellular cAMP Enzyme Immunoassay. Hippocampal neurons from E18 rats were dissociated and plated on poly-L-lysine coated 6-well plates in minimum essential medium supplemented with N-2, glucose, albumin, pyruvic acid, antibiotics and antimycotics. […] After 24 hours, cell lysates were obtained and intracellular cAMP levels were measured using cAMP Biotrak Enzymeimmunoassay (EIA) System (Amersham) in accordance with manufacturer's instructions.

[6] = test system: Uch-L1; experiment: Hydrolase (ubiquitin-AMC) assay on hippocampal slices; assay type: cell-based, mouse
Procedure: as §1, §2

[7] = listed as TAT-Uch-L1 fusion protein
[8] = listed as Uch-L1 fusion protein

Molecule: CC(=O)O/N=C1\C(=O)N(Cc2cc(Cl)ccc2Cl)c2ccc(Cl)cc21 [LDN-57444, reference compound]
- IC50 [1]: 25 µM
- reduction of enzymatic activity ([2]; 1 μM LDN): 20%
- reduction of enzymatic activity ([2]; 2.7 μM LDN, 2-4 hour perfusion): ~40%
- inhibition of enzymatic activity ([2]; 5 μM LDN, 15 minute perfusion): 20%
- reduction of activity ([2]; 5 μM LDN, 2 hour exposure): 70%
- Maximal inhibition of Uch activity ([2]; 5 μM LDN, one hour (60 min)): 70%
- Uch activity in APP/PS1 slices ([2]; 5 μM for 2 hrs): further reduced Uch activity
- Ubiquitin-C-Terminal hydrolase activity ([2]; 5 μM for 4 hrs): decreased
- Uch-L1 hydrolase activity ([2]; LDN-57444 perfusion (5 μM, 4 hrs)): less than 30 % of vehicle-treated controls
- enzymatic activity ([2]; WT and APP/PS1 slices, 5 μM LDN, 2 hours): ~70 % of values in vehicle treated WT slices

B1: TAT-HA-Uch-L1: fusion protein: 11-amino acid transduction domain of HIV-transactivator protein (TAT) fused with an HA tag and human Uch-L1 (protein)
chain: MQLKPMEINPEMLNKVLSRLGVAGQWRFVDVLGLEEESLGSVPAPACALLLLFPLTAQHENFRKKQIEELKGQEVSPKVYFMKQTIGNSCGTIGLIHAVANNQDKLGFEDGSVLKQFLSETEKMSPEDRAKCFEKNEAIQAAHDAVAQEGQCRVDDKVNFHFILFNNVDGHLYELDGRMPFPVNHGASSEDTLLKDAAKVCREFTEREQGEVRFSAVALCKAA
modifications: left off: small tags and cut ends
- localisation in soluble/insoluble protein fractions [3]: localized to the soluble fraction
- IIα regulatory subunit levels ([4]; 20 nM TAT-HA-Uch-L1 1 hr pretreatment plus Aβ42): 121.03±14.10 % of control
- Aβ-induced increase in PKA RIIα levels (words) [4]: blocked by pretreatment; also recorded: re-established normal levels of regulatory subunit; also recorded: re-established normal levels of RIIα
- Aβ-induced increase in PKA RIIα levels (words) [4, 7]: blocks the increase
- Aβ-induced increase in PKA RIIα levels (words) [4, 8]: blocked
- cAMP levels in Aβ-treated cultured hippocampal neurons (words) [5]: remained low; also recorded: did not affect the decrease in cAMP levels; also recorded: does not rescue the decrease in cAMP levels
- cAMP levels in Aβ-treated cultured hippocampal neurons (words) [5, 7]: does not re-establish normal cAMP levels
- cAMP levels in Aβ-treated cultured hippocampal neurons (words) [5, 8]: does not rescue the decrease in cAMP levels
- Uch activity ([6]; 20 nM fusion protein 1 hr pre-incubation, 200 nM Aβ 20 min): normal monoubiquitin levels and Uch activity are maintained; also recorded: re-established normal ubiquitin-C-terminal hydrolase activity; also recorded: re-established normal Uch activity
- ubiquitin-c-terminal hydrolase enzymatic activity ([6]; 20 nM fusion protein 1 hr, then 200 nM Aβ plus fusion protein): 98.40±5.76 % of TAT-HA treated WT slices
- enzymatic (Uch) activity ([6]; fusion protein alone): slight increase
- enzymatic activity ([6]; fusion protein alone for 1 hr): 148.63±12.01 % of TAT-HA treated slices
- Uch activity ([6]; slices from 4 month APP/PS1 mice, 20 nM for 1 hr): Uch activity is restored
